Data reported in patent US20190062427A1 (Alector, published 2019).

Tests used:
[1] = biological target: T1, human Siglec-9 expressed on human cells (human, UniProt Q9Y336 18-463); assay: cell-based or functional assay
[2] = biological target: T1, human Siglec-9 expressed on human cells; assay: cell-based or functional assay; remark: listed apart in the source
[3] = biological target: T1, human Siglec-9 expressed on human cells; assay: flow cytometry on human primary dendritic cells, 10 ug/ml mAb, PE secondary
Method: (§1) Initial characterization of Siglec-9 antibodies involved determining their ability to bind Siglec-9 expressed on human primary monocytes, human primary macrophages, human primary dendritic cells, human primary neutrophils, and human primary natural killer (NK) cells. Cells were harvested, plated at 10⁶/ml in a 96 well plate, and incubated in 100ul PBS containing 2% FBS, 2 mM EDTA and 10 μg/ml Mab and Fc blocking reagent for 1 hour in ice. Cells were washed twice and incubated in 100ul PBS containing 2% FBS, 2 mM EDTA and 5 μg/ml PE-conjugated secondary antibody for 30 minutes on ice. Cells were washed twice in cold PBS and analyze by flow cytometry on a BD FACS Canto. Data analysis and calculation of MFI values was performed with FlowJo (TreeStar) software version 10.0.7.
(§2) Binding is compared to an isotype control. […] In Table 5, “Buffer” refers to cells that were treated only with the PBS buffer described supra; “Secondary Ab” refers to cells that were treated only with the PE-conjugated secondary antibody; and “mIgG1,” “mIgG2a,” and “mIgG2b” refer to isotype control antibodies.

[4] = biological target: T2, Siglec-9-Fc (R&D Systems, catalog number 1139-SL-050) (human, UniProt Q9Y336 18-348); assay: FACS ligand competition: 25 ug/ml mAb pre-coupled with 25 ug/ml Siglec-9-Fc, binding to sialic acid ligands on U937 cells, anti-human IgG-PE
T2 construct: Bought fusion protein; also called Siglec-9-Fc fusion protein; not shown: human IgG1 Fc
Method: To determine whether Siglec-9 antibodies block binding to sialic acid ligands, U937 cells, which robustly express sialic acid ligands that predominantly bind to Siglec-9, were utilized in a FACS-based protocol. Briefly, 25 μg/ml Siglec-9 antibodies were pre-coupled with 25 μg/ml Siglec-9-Fc (R&D Systems, catalog number 1139-SL-050) for 20 minutes on ice in binding buffer (PBS with 0.25% BSA and 1 mM CaCl₂) in 96-well round bottom plates. […] Cells were pelleted and resuspended in goat anti-human IgG-PE (SouthernBiotech catalog number 2040-09) secondary antibody at 1:2000 dilution in binding buffer for 30 minutes. Cells were then washed three times and analyzed by flow cytometry on a BD FACS Canto. Data were analyzed on FlowJo version 10.0.6 (TreeStar).

[5] = biological target: T1, human Siglec-9 expressed on human cells; assay: flow cytometry on human primary monocytes, 10 ug/ml mAb, PE secondary
Method: as §1, §2

[6] = biological target: T3, Histidine-tagged human Siglec-9 (NovoProtein) (human, UniProt Q9Y336 18-348); assay: SPR Biacore T200, 25 C, 25 nM mAb captured on anti-mouse IgG CM5 chip, His-tagged Siglec-9 100 nM as analyte, single-concentration 1:1 fit
T3 construct: Bought protein; also called Siglec-9-his tagged protein; His-tagged Siglec 9 antigen; not shown: histidine tag
Method: Affinity constants (KD) were calculated from the ratio kd/kₐ.

[7] = biological target: T1, human Siglec-9 expressed on human cells; assay: flow cytometry on human primary macrophages, 10 ug/ml mAb, PE secondary
Method: as §1, §2

[8] = biological target: T3, Histidine-tagged human Siglec-9 …; assay: SPR Biacore T200, 25 C, 25 nM mAb captured on anti-mouse IgG CM5 chip, His-tagged Siglec-9 200 nM as analyte, single-concentration 1:1 fit
[9] = biological target: T3, Histidine-tagged human Siglec-9 …; assay: BLI ForteBio Octet RED96, mAb on AMC tips, His-tagged Siglec-9 3.13-50 nM; assay 2; column head prints nM but kd/ka gives M
Method: (§3) Antibodies were captured on anti-mouse IgG Fc capture (AMC) biosensor tips, after which a baseline was run for 60 seconds. A 15 minute association step was performed in a dilution series of His-tagged Siglec 9 antigen, ranging from 3.13 nM to 50 nM, after which dissociation was measured over 60 minutes. Affinity constants (KD) were calculated from the ratio kd/kₐ.

[10] = biological target: T3, Histidine-tagged human Siglec-9 …; assay: BLI ForteBio Octet RED96, mAb on AMC tips, His-tagged Siglec-9 3.13-50 nM; average of two assays
Method: as §3

[11] = biological target: T3, Histidine-tagged human Siglec-9 …; assay: BLI ForteBio Octet RED96, mAb on AMC tips, His-tagged Siglec-9 3.13-50 nM; assay 1; column head prints nM but kd/ka gives M
Method: as §3

T1 sequence (Q9Y336 18-463): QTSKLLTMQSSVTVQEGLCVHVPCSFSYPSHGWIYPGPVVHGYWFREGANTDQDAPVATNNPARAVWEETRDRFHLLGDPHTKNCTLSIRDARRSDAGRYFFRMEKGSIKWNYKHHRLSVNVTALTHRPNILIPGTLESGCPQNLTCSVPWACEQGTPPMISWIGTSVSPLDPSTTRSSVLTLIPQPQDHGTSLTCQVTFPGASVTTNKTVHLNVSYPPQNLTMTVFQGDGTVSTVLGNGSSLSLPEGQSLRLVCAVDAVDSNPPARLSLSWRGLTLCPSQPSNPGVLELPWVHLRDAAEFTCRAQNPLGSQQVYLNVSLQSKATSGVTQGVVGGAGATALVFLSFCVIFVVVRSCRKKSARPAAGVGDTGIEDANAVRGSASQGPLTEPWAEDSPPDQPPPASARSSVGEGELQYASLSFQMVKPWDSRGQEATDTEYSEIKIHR
T2 sequence (Q9Y336 18-348 limits assumed): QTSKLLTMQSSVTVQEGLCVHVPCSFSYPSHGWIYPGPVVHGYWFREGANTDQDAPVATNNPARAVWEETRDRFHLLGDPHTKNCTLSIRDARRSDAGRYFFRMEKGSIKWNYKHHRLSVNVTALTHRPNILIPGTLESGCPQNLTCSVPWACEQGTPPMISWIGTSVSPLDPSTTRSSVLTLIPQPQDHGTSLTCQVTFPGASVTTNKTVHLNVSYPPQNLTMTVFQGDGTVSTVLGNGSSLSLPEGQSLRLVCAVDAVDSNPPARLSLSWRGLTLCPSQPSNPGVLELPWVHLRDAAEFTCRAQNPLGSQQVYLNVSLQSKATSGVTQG
T3 sequence (Q9Y336 18-348 limits assumed): as above

Row | Binder | Percent Siglec-9 Surface Expression, Macrophages (% Siglec-9) [1] [%] | Percent Siglec-9 Surface Expression, Microglia (% Siglec-9) [1] [%] | Percent Siglec-9 Surface Expression, DCs (% Siglec-9) [2] [%] | Percent Siglec-9 Surface Expression, Monocytes (% Siglec-9) [2] [%] | Percent Siglec-9 Surface Expression, THP-1 cells (% Siglec-9) [2] [%] | % Positive [3] [%] | MFI [3] | Percent Siglec-9-Fc Binding [4] [%] | % Positive [5] [%] | MFI [5] | Kd [6] [nM] | % Positive [7] [%] | MFI [7] | Kd [8] [nM] | Kd [9] [nM] | Kd [10] [nM] | Kd [11] [nM]
1 | anti-Siglec-9 antibody 2D5 (antibody, IgG1, V domains shown) VH: QVQLQQSGPELVKPGASVKISCKASGYAFSSYWMNWVKQRPGKGLEWIGRIYPRDGDTNYNGKFKGKATLTADKSSSTAYMQLSSLTSEDSAVYFCARWLLRFAYWGQGTLVTVSA VL: not shown | 94.6 | 90.6 | 94.3 | 84.4 | 81.1 | 34.2 | 252 | 97.8 | 9.1 | 145 | 5.1 | 93.2 | 692 | – | – | – | –
2 | anti-Siglec-9 antibody 7H12 (antibody, V domains shown, the asterisk is not explained; the printed VL holds a 'Z' at position 3) VH: QVQLQQSGAEVVKPGASVKLSCKAFGYTFTSYWMHWVKQRPGQGLEWIGEINPRDGVSNCNEKFTSKATLTVDTSSNTAYMQLNNLTSEDSAVYYCTIWEDYFDYWGQGTTLTVST VL: NVZMTQTPLTLSVTLGQPASISCKSSQSLLYTNGKTYLNWLLQRPGQSPKLLIYLVSKLESGVPDRFSGSGSGTDFTLKINRVEAEDLGVYFCLQAPHFPLTFGGGTKLEMK | 34.2 | 54.7 | 66.2 | 48.4 | 68.9 | 60.5 | 331 | 97.8 | 38.3 | 216 | – | 94.8 | 467 | 9 | – | – | –
3 | anti-Siglec-9 antibody 5B1 (antibody, IgG1, V domains shown) VH: QVQLQQSGAEVVKPGASVKLSCKAFGYTFTSYWMHWVKQRPGQGLEWIGEINPRDGVSNCNEKFTSKATLTVDTSSNTAYMQLNNLTSEDSAVYYCTIWEDYFDYWGQGTTLTVST VL: NVVMTQTPLTLSVTLGQPASISCKSSQSLLYTNGKTYLNWLLQRPGQSPKLLIYLVSKLESGVPDRFSGSGSGTDFTLKINRVEAEDLGVYYCLQATHFPLTFGAGTKLELK | 24.8 | 27.5 | 39.2 | 31.2 | 61.6 | 97.8 | 646 | 97.8 | 75.9 | 310 | 2.7 | 98.7 | 621 | – | – | – | –

Results, then the binder that gave them:

Row | Percent Siglec-9 Surface Expression, Macrophages (% Siglec-9) [1] [%] | Percent Siglec-9 Surface Expression, Microglia (% Siglec-9) [1] [%] | Percent Siglec-9 Surface Expression, DCs (% Siglec-9) [2] [%] | Percent Siglec-9 Surface Expression, Monocytes (% Siglec-9) [2] [%] | Percent Siglec-9 Surface Expression, THP-1 cells (% Siglec-9) [2] [%] | % Positive [3] [%] | MFI [3] | Percent Siglec-9-Fc Binding [4] [%] | % Positive [5] [%] | MFI [5] | Kd [6] [nM] | % Positive [7] [%] | MFI [7] | Kd [8] [nM] | Kd [9] [nM] | Kd [10] [nM] | Kd [11] [nM] | Binder
4 | – | – | – | – | – | – | – | – | – | – | – | – | – | – | 0.879 | 0.76 | 0.639 | anti-Siglec-9 antibody 12B12 (antibody, V domains shown, Murine antibody; also called S9-12B12; S9-12B12.2) VH: EVQLVESGGGLVQPGGSLKLSCAASGFTFSNYGMSWVRQILDKRLELVATINSNGGRTYYPDSVKGRFTISRDNAKNTLYLQMSSLRSEDTAIYYCVTYYRYDSYAMDYWGQGTSVTVSS VL: DIVLTQSPASLAVSLGQRATISCRASENVDSYGISFMHWYQQKPGQPPKLLIYRASNLESGIPARFSGSGSRTDFTLTINPVEADDVATYYCQQSNEDPWTFGGGTKLEIK
5 | – | – | – | – | – | – | – | – | – | – | – | – | – | – | 0.557 | 0.54 | 0.532 | anti-Siglec-9 antibody 5C6 (antibody, V domains shown, Murine antibody; also called S9-5C6; S9-5C6.3) VH: EVQLQQSGPELVKPGASVRISCKASGYTFTDYNIHWVKQSQGKSLEWIGYIYPYNGDTGYNQKFQNKATLTVDNSSSTAYMELRSLTSEDSAVYYCANGNYLYYYAMDYWGQGTSVTVSS VL: DVVMTQTPLSLPVSLGDQVSISCSSSQSLVHSNGNTYLHWYLQKSGQSPKLLIYKVSNRFSGVPDRFRGSGSGTDFTLKISRVEAEDLGVYFCSQNTHVPLTFGAGTKLELK
